From the supplement of paper PMC9170038

System: K4 kissing-loop RNA reporter
Assay: apparent KD of K4 kissing-loop reporter; higher = weaker reporter binding
Settings: Eterna round: R107
Protocol: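 RNA-MaP round R107: designed RNA switches with theophylline, tryptophan, arginine or FMN aptamers are transcribed on-chip within common flanks. They are titrated with a labelled K4 kissing-loop RNA reporter in RNA-MaP buffer (100 mM Tris pH 7.5, 80 mM KCl, 4 mM MgCl2), without ligand or with the indicated ligand. Median apparent KD per design.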

[1] = input ligand: theophylline 20 uM
[2] = input ligand: tryptophan 2.4 mM
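Note: bound reporter read as fluorescence of individual clusters on recovered sequencing chips by microscopy, with normalized cluster intensities fitted with a binding model.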

| Sequence | apparent KD of K4 kissing-loop reporter (input ligand: FMN 200 uM) | apparent KD of K4 kissing-loop reporter (input ligand: arginine 13.2 mM) | apparent KD of K4 kissing-loop reporter (input ligand: none) | apparent KD of K4 kissing-loop reporter [1] | apparent KD of K4 kissing-loop reporter [2] |
| --- | --- | --- | --- | --- | --- |
| GCCGUAGAUUGAAGGAGCGGACUUAUAGGUCUUAAGGAGUGAUGUUCCUGACACUCGGCGGUCCAGGUAGGUCGCAAUCUACGGC | 296 nM | 269 nM | 320 nM | 252 nM | 272 nM |
| CAGGCGACUAUCGAUACCAGAUGAUAUCGACUACUUGAGUGAUGUUCGAUUAAAGGCAUUAUCCCUUGGCAGCGACUGGACACAU [theeternabot_sameState_KL_Theo_B_24] | 706 nM | 505 nM | 667 nM | 659 nM | 414 nM |
| CUAUAAGUGCCGAGUGAUGUUCGGCCAAUACGAGGACCGGUACGGCCGCCACUCGGUCAGUCGGUGCCCACCGGGCAUGGCUGAC [Ortima] | 186 nM | 237 nM | 205 nM | 213 nM | 113 nM |
| AGGAUCCGUCGACAAAAGUCGACAUAAUCCAAGGAUAUGACGAAAGUCAGAAGGUGGACAUAAGUCCAGUGAUGUUGGAGGAUCC [FmnA 16 #SwitchBubble #K4Late] | 766 nM | 283 nM | 427 nM | 557 nM | 351 nM |
| GGGUCAUGGAACGGAUAAGUGAUGUUUACCCGAGGACCGGUACGGCCGCCACUCGGUCGUUAUUUCCGACGUGCUGGUAAGACUA [theeternabot_exclusion_KL_Trp_A_10] | 336 nM | 253 nM | 378 nM | 348 nM | 475 nM |
| UAAGAAUAAGUAGCAGUGAUGUUGCUACUACGAGGACCGGUACGGCCGCCACUCGAGCCGUACAAAGUAGCAACUAGUACGAAUA [(H1)-(H2)-(Trp1)-(Trp2)-(T)'-(H)'-(T)''] | 231 nM | 194 nM | 223 nM | 246 nM | 365 nM |
| AAAUAAGCUCAUGAUACCAGCCAGUGAUGUUGGUUGGUCCACCGUGUCCGAACAUUAAGCGGCCCUUGGCAGCAUGAUGCGCGUA [Xearxea] | 125 nM | 98.5 nM | 90.1 nM | 119 nM | 118 nM |
| AAACAACUUGACGAUACCAGCUUACUCGGCAAGCCAGUGAUGUUGGUGAAAAGGAGUCAAAGCCCUUGGCAGCGUCGAAGGUCUG [Raatarerin] | 271 nM | 240 nM | 304 nM | 119 nM | 258 nM |
| AGACUACCACACUGUCAAUAGACAGUGAACUAGGAUAUGCUGAUAAGCAGAAGGAGUGAUGUUCCUAAUAAGGUAGUCAUAUAAU [FmnAX 15 #SwitchBubble #StaticStem #K4Early] | 590 nM | 482 nM | 558 nM | 637 nM | 503 nM |
| GUGAGGAUCAGAAGGAGCGUCGGCAAUCCAGUGAUGUUGGGUGUUGGUUAUAUUUAACGACGACAGGUAGGUCGCUGAUUUUCAA [Same State Arginie B GF 21] | 163 nM | 107 nM | 163 nM | 190 nM | 140 nM |
| GGUUUAUAGGAGGAUACCAGUACGGAUAAAGUACAUUAAUAGUAGAGUGAUGUUCUAAAGUACCCUUGGCAGCUUAGAUUAAGUU [ExTheophylB.I] | 87.1 nM | 177 nM | 133 nM | 209 nM | 74 nM |
| UGUCAUUGGUCUGAUACCAGUACCCUUGGCAGCCAAGGAGUGAUGUUCCGAGGAUACCAGUGCCCUUGGCAGCAGACCGAUGACU [TheoBS 27 #DoubleAptamer #SwitchBubble] | 375 nM | 308 nM | 354 nM | 176 nM | 350 nM |
| UGGAUAUAGUGAUGUUAUAUAGAGAUGGAUACCAGCUAAGAGAAUGGCCCUUGGCAGCCGAAAGAAGUAUCAUUAGAGAAGAAUG [ExTheophyl.Ag] | 261 nM | 249 nM | 259 nM | 276 nM | 214 nM |
| AAUAAAAUCACGGCCGCCACUGAUUAUUUUAUUAGGAGUGAUGUUCCUAUGACAAUAUACCUUAACAGGACCGGGUGAAUAUUUA [JR_ExcTryptoB_Sub010] | 87.8 nM | 89.6 nM | 86.1 nM | 94.4 nM | 80.8 nM |
| GAACGGCGGGCGGCCGCCACUGGUAUACGAGUGAUGUUCGGAUAUACAUAAAAUAAGGUAAUUAACAGGACCGGGUCAGAGCCGG [Tryptophan B Same State; Euphoria Solution] | 138 nM | 130 nM | 165 nM | 142 nM | 118 nM |
| UCAGUGAUGUUGAACAAAUAAUGGUUCCUAAAGGAUAUCCACAGAUGGAGAAGGUUAGUAGCGGCUCGCACAUCGUAGGACAAAU [theeternabot_exclusion_KL_FMN_A_1] | 767 nM | 648 nM | 734 nM | 602 nM | 526 nM |
| AGGUCUGCACGAAGGAGCGCCCUGACAGGUUGCUGCCGUGGGCAGUGAUGUUGCUCAGUCCGGCAGGUAGGUCGCGUGCAGACCU | 136 nM | 109 nM | 123 nM | 97.5 nM | 161 nM |
| AUGCUUUUAAUAACACUAUAUACAGCUGAAGGAGCGACAAUAAAGUCAGGUAGGUCGCAGAAUAGAUGAGUGAUGUUCAUUUUUA [#05 K4 Arginine A Exclusion] | 92.8 nM | 178 nM | 118 nM | 166 nM | 76.9 nM |
| GGAUAGGACAGAGGAUAUGGGCUAGGCAAGAAUAACUUGUCUAGCAAAUCCAUGAGGAGUGAUGUUCCAGAAGGCUGUCCUAUCG [FmnBX 1 - #SwitchBubble #StraticStem #DoubleMagnetSystem] | 375 nM | 167 nM | 114 nM | 177 nM | 143 nM |
| UAGUCCUAGUGAUCCUUAUCAAGUGGUGGGCGAGGACCGGUACGGCCGCCACUCGACUAUGCAGUGAUGUUGUAAUCCGGACAAU [Exclusion - Tryptophan A (Freestyle 12)] | 669 nM | 488 nM | 633 nM | 742 nM | 541 nM |
| UGUCAUGGAAACAUGACCGUUAAAAUAAAUCGAGGACCGGUACGGCCGCCACUCGUAUAGCGGUCAGUGAUGUUGACUGUAGUAC [KL-SSTryp-A form2 sub12 #dotplot2>1] | 419 nM | 428 nM | 491 nM | 475 nM | 546 nM |

| Sequence | apparent KD of K4 kissing-loop reporter (input ligand: FMN 200 uM) | apparent KD of K4 kissing-loop reporter (input ligand: arginine 13.2 mM) | apparent KD of K4 kissing-loop reporter (input ligand: none) | apparent KD of K4 kissing-loop reporter [1] | apparent KD of K4 kissing-loop reporter [2] |
| --- | --- | --- | --- | --- | --- |
| UAAUCCUAAUGAUAAUAAUCAAGUGGUGGACGAGGACCGGUACGGCCGCCACUCGAAAAUGCAGUGAUGUUGUAAUACGGAUAAU [Exclusion - Tryptophan A (Freestyle 3)] | 288 nM | 460 nM | 372 nM | 541 nM | 247 nM |
| GCUAUGGUAGGAAGGAGCGCUGCCUUGUUUUUACGAGUGAUGUUCGGAAGCAGGGUGUUAAAGCAGGUAGGUCGCCUACUAUAGC [Arginine B K4 23] | 191 nM | 121 nM | 160 nM | 172 nM | 155 nM |
| ACCAUCAAAGAUGGCCUCGACACCGCUGAUACCAGAGUGAAAACACUCCCUUGGCAGCAGGUGAGUGAUGUUCACAGUCGAAGGA [Omel KL Theo A SS B v1] | 492 nM | 464 nM | 641 nM | 538 nM | 470 nM |
| AACACUCACGGAGUGAUGUUCUGGAAUAAACGAGGACCGGUACGGCCGCCACUCGAAAAUGAGUGAGUCCUACGAAAAGUAGGAC [Omei inspired 4] | 357 nM | 394 nM | 361 nM | 405 nM | 108 nM |
| AGUGCACUGUCAGGAUAUAUACAGUGAUGUUGUGUAUGUCAGCAAGUCAAAGACUUGCUUUUCUGUGUAGAAGGGACUGUGUACA [Omei KL FMN B Exc A v2] | 387 nM | 134 nM | 154 nM | 141 nM | 148 nM |
| UUAUAAUUCAGUGAUGUUGAAAAUAUAACAGAGGAUAUGCGUUUAAGCAGAAGGCUGAAAUACUAUACUUUAAUCUAUUAAAUUU [JR_SSFMNA_Sub019] | 232 nM | 377 nM | 313 nM | 332 nM | 212 nM |
| CUAUGGAAACAUAGUAGUCGGGAAACCGAUACCAGUAUGGAAACAUACCCUUGGCAGCGGAAUGAUUAAACGGAGUGAUGUUCCG [Theophylline A K4 18] | 279 nM | 276 nM | 292 nM | 223 nM | 250 nM |
| UAUUGAUUGUCAGGAUAUCGUAAACGAGUGAUGUUCGUAAAUCGACGAUAGUCGAUAUGAUCUGAACGAGAAGGGACAUUAUUUA [JR_SSFMNB_Sub010] | 365 nM | 311 nM | 388 nM | 336 nM | 305 nM |
| GGAUGGUAGGCGGCCGCCACUAAAUGUGAACACAUACAAGCCAGUGAUGUUGGUAUGAUGGACAAUAGGACCGGGCCUAGAUAGA [Exclusion - Tryptophan B (Freestyle 7)] | 595 nM | 448 nM | 555 nM | 495 nM | 542 nM |
| GGUUCCUCAGUGAUGUUGAGGUGACCUCGGCAGGAUAUAGGCAUUACUAGAAGGGCCAAAAGAAUCCUGUGCAGCAACACAGGGA [Usrasoza] | 152 nM | 238 nM | 298 nM | 257 nM | 262 nM |
| AAAGAUCUUCUAGAAACUAGAAGAUCAAGAGAGGAUAUCCGAAUUCGGAGAAGGCUCACUAAGUGAUGUUUGGACCCAAAGGGAA [AK3 SS FMN A] | 1460 nM | 1520 nM | 1650 nM | 1600 nM | 1030 nM |
| ACCACCAGCCGCACGAUACACGGGCAUUACCGAGGACCGGUACGGCCGCCACUCGCCCGCACGCUGGAUCGAGUGAUGUUCGAUC [theeternabot_sameState_KL_Trp_A_15] | 358 nM | 334 nM | 384 nM | 371 nM | 326 nM |
| GGAUAGGAUAGAGGAUAUGGGCUAGGCAAGAAUAACUUGUCUAGCAAAUCCAUGAGGAGUGAUGUUCCAGAAGGCUAUCCUAUCG [FmnBX 1 U9+A77] | 960 nM | 160 nM | 164 nM | 145 nM | 155 nM |
| CGCGCGUGAGGACUUGCCCUUCAUGGAGAUACCAGCCAGUAUGCGGGCCCUUGGCAGCUCGAGUGAUGUUCGAGUUUAAGGCAAA [Riesla] | 130 nM | 113 nM | 115 nM | 114 nM | 108 nM |
| AGGCACGAGCAAGGAUAUCGAGUGGAGUGAUGUUCUGCCGACCCAGGACCGCAAGGUCCUGGGUCGCGAGAAGGUGCUCGUGCCU [#2 Same State - FMN A Attempt #5 (HarryS)] | 254 nM | 642 nM | 730 nM | 676 nM | 685 nM |
| UGACAUUGCUCAGAUACCAGACAUGAGCAUCAGCCAUGUGCCAACGUACAAAUAAUAAAUGUCCCUUGGCAGCUGAGCAAUGUCU [TheoBX 15] | 67.4 nM | 25.8 nM | 48.2 nM | 64.6 nM | 59.9 nM |
| GGGCCUGGGCCCGUAAGGGCCUGGGCCCGUUAGGAUAUGACGUGAUUCAGAAGGGAUGGGUGGAGUGAUGUUCCACCCGAGAGGG [#2 Same State - FMN A Attempt #24 (HarryS)] | 111 nM | 97.7 nM | 117 nM | 88.5 nM | 96.7 nM |
| UAGUCAUACAGAGGAUAUCGUAUGAGUGAUGUUCAUACGAUAUAAUCUAAUUGUAUAGAUGUUCGACGAGAAGGCUGUAUGACUA [FMN B Ex t1a] | 116 nM | 84.5 nM | 94.9 nM | 91.3 nM | 92.6 nM |
| GCCAGUGAUGUUGGCAUUUCGAGCCAUGAAGGAGCGCACGGAAGUGCAGGUAGGUCGCAUGGUACUUAGGAUAUUAUCCUAAGUA [Antearxe] | 180 nM | 169 nM | 224 nM | 178 nM | 144 nM |
| UGACUGGAUUGAAGGAGCGCUAAACUCCUAGUGAUGUUAGGGACACGAGACAAAGUCUCGAGGCAGGUAGGUCGCAAUCUAGUCU [FiskerMod 6 - Jieux - Same State - Arginine B] | 309 nM | 225 nM | 247 nM | 296 nM | 249 nM |
| CCAUUCAUUUACGAUACCAGUCUAAUAUAUUUAAUCAAAACCCUCGCCGAGUGAUGUUCGGACCCUUGGCAGCGUCUGCGACAGG [cyycmullin] | 354 nM | 333 nM | 334 nM | 399 nM | 227 nM |
